T1: hiR2-FL-D569E-T7 (human, UniProt Q6PJF5 1-856)
T1 sequence: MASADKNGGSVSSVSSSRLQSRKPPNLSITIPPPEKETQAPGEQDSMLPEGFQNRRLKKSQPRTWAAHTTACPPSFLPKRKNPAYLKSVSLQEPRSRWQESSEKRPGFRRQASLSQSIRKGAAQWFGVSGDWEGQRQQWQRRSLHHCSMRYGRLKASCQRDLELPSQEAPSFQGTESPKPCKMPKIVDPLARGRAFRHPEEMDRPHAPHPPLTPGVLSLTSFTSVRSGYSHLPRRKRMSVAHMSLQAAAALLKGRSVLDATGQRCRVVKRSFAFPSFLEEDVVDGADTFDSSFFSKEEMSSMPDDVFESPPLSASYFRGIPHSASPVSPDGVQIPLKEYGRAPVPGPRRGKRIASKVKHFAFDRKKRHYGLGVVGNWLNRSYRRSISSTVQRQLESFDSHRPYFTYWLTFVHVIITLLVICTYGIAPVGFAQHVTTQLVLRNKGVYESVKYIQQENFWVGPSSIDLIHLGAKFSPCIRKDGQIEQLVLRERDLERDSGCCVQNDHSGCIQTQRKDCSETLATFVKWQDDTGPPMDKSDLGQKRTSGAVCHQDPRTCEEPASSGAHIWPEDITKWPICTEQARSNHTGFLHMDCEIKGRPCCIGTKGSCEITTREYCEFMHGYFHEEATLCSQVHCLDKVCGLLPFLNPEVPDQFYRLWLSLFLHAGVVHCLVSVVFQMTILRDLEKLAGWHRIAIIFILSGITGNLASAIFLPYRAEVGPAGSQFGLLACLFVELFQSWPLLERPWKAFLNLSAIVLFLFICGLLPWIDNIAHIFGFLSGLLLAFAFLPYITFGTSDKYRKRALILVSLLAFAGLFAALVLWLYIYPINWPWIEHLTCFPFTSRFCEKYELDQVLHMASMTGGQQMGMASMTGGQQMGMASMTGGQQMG

B1: antibody 48 (antibody, V domains shown)
VH: QVQLQQSGTELVRPGTSVKVSCKASGYAFTNYLIEWVKQRPGQGLEWIGVINPGSGFTKYNEKFKGKATLTADKSSSTVYMHLSSLTSEDSAVYFCARGLYRAMDYWGQGTSVTVSS
VL: DIQMTQSPASQSASLGESVTITCLASQTIATWLAWYQQKPGKSPQLLIYGATTLADGVPSRFSGGGSGTKFSFKISSLQAEDFVSYYCQQLYSTPYTFGGGTKLEIK
notes: mouse IgG, kappa light chain; also called clone #48; purified antibody 48
B2: antibody 50 (antibody, V domains shown)
VH: QVQLQQSGAELVRPGASVKVSCKASGYAFSNYLIEWVKQRPGQGLEWIGVINPGSGFTKYNEKFKGKATLTADKSSSTAYMQLSSLTSEDSAVYFCARGLYRAMDYWGQGTSVTVSS
VL: DIQMTQSPASQSASLGESVTITCLASQTIGTWLAWYQQKPGKSPQLLIYAAASLADGVPSRFSGGGSGTKFSFKISSLQAEDFVNYYCQQIYSTPYTFGGGTKLEIK
notes: mouse IgG, kappa light chain; also called clone #50; purified antibody 50

Molecular target: T1, hiR2-FL-D569E-T7
Assay: FACS, MEF-DKO cells, 3 µg/ml
Outline: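 Binding read by flow cytometry after a PE goat anti-mouse IgG F(ab′)2 secondary (1:100, on ice, 1 h, dark). Before that, immortalized MEF-DKO lines carrying single-mutant hiR2-FL-T7 constructs were incubated 1 h on ice with 3 μg/ml antibody or FACS buffer alone.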

Binder	loss of binding vs wild type
B1	≥ 30%
B2	≥ 30%

Source: patent publication US20240287172A1 (SCIRHOM, published 2024)
